Reference: a protein production outcome set (Wang et al. 2014)

Assay: label from the status in PepcDB records
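Also: failed if final PepcDB status was selected cloned or expressed and not failed if soluble or beyond.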

Row | Sequence | protein production
1 | MVLTSGAGASLVLLNTFSEIYMRISTRVIGGALIATLLTQLTACGTIFYPDRRGQIGGKIDPVVAAMDAIGILFYVIPGLIAFGIDFATGAIYYPGGRTAQVDPAKLQEAVSPDGKVDNLKLQAILESELGQRLPLNDPRLIQHRGSIEQLASLGLVPAA | failed
2 | MTQQLNHAKVNQHPGQATLPETAEGQVRTYEVKTYGCQMNVHDSERLSGLLEEAGYVAAPEDTTPDLVVFNTCAVRENADMRLYGTLGNLRSVKEKNPGMQIAVGGCLAQKDKDTVVKKAPWVDVVFGTHNIGSLPTLLQRAEHNAQAEVEIVDSLEQFPSVLSAKRESAYAGWVSVSVGCNNTCTFCIVPSLRGKEQDRRPGDILAEVQALVDQGVTEVTLLGQNVNAYGVNFVDPELERDRSAFSKLLRACGEIEGLERVRFTSPHPAEFTSDVIDAMAETPNICPQLHMPLQSGSDKVLKEMRRSYRSKKFLSILDEVRAKIPHASITTDIIVGFPGETEEDFQATLDVVKKARFTSAYTFQYSPRPGTPAAEYENQLPKEVVQERYERLMVVQEQVCEEENQKLIGTTVELLVQAGGGRKNDATKRMSGRARDGRLVHFAPEGDIDGEIRPGDFVTVTVTEAKPFFLIADSGVQTHRRTKAGDNSAVGQVPTTAPIGVGLGLPQIGAPKVAPATESACCSIN | failed
3 | MLKLTPLLLAIAYGFLMYQFSVWRTKRMLDAQSRPLDEPEILALARRMAAALDLPTVKVSVFEVDPVNGLAAPDGRIFLTRGFLKKYRAGEVTAEELASVIAHELGHVALGHSRRRMIDFTGQNAVLMMLGAVLNRFVPFAGIWIARLLTSALSARLSRRDEHEADAYASALLVKAGIGTEPQKSLFRKLHRWSGMNSSAVPAWLMSHPVTDERIRRIEEREARWIEGLEHHHHHH | failed
4 | SGCIQSITCKARIRRENIVVYDVCATIDQCPTRIEETSPIVLRYKTPYFKASARVVMPPIPRHETWVVGWIQACNQMEFFNTYSDLGMSSWELPDLREGRVKAISDSDGVSYPWYGNTTETVTLVGPTNKISRFSVSMNDNFYPSVTWAVPVSDSNVPLLTRIKRDQSFTTWLVAMNTTTKEKIILQTIKWRMRVDIEVDPLQLLGQRARLVGRTQQEQPRILSRMEPIPPNALVKPNANDAQVLMWRPKRGPPLVVIPPK | not failed
5 | MQQPTASVVSYVAEYHKATETTMGRYKKVIEITGHDEVAAKLLEGLIDAGTRYFSKVVEMEHRMASARFRLDGEELRELTETLDRSRRLAHESLISSLHVFNRYIVKEYGEELKEAGIEGGIFPKPEANRDRIAIADWAGELLTGIYENRHR | not failed
6 | MKKKFIITFILSLALFAGIFWVANKVLDIMELTSKVEFVGSDLGEGNNIEQRVENELLFLVLGLDSDDFSGATTEQNRTDTMILCKVNFDTGKIDILSIPRDSRVMVNGKLDKINHAHHFGGLKLAMKTTRDFLNLDIDYYVRVNFFSVKDIVDALGGVEVDVPVQVDVAEDNVHLKPGKQVLNGKQALQFARFRAGYKEGDVGRVKAQQILIKALVKELTKAKNIAKIPEILEVVKKTVNTNIPFSTIAKLSLKVNNLSEDKINTQIVPGESAYINNTSYFIPDRSKLNAIVKEMFSDYLLNKSGSSQVDTDKNKNNTNTKNNNNKNNNTNNRNNSNNNKNNNNKNNKNNKNNNR | failed
7 | MINKVLLEGQRITRSPQVKQHACGASFFLVVLLLIGGLLYSTISWMWDEQRLPLSKLVLQGDLHYVSALDVQRVLARLDHIGTFMSQDINVLQESVQSIPWVSHASIRKQWPDTIKVYLTEYQVEALWNANALLDKNGTVFYGDIARVNGEYVKLYGPDGTAPQVLKAWRDYNPKFAQLGLNISSLVLNDRRAWQIILDNGIRLELGKESLEERISRFFLLYKQLGNKAEQVSYIDLRYDTGAAVGWFPEQELTQEKNDD | failed
8 | APEWTEEDLSQLTRSMVKFPGGTPGRWEKIAHELGRSVTDVTTKAKQLKDSVTCSPGMV | not failed
9 | MSLGHGDEGITPLSSEIVNFSTTVWTDGDKDHLEKHLVENLNCIRHYPEPDAGTLRQMLAKRNSVDNNAILVTNGPTAAFYQIAQAFRGSRSLIAIPSFAEYEDACRMYEHEVCFYPSNEDIGEADFSNMDFCWLCNPNNPDGRLLQRTEILRLLNDHPDTTFVLDQSYVSFTTEEVIRPADIKGRKNLVMVYSFSHAYGIPGLRIGYIVANKDFMKRVAAFSTPWAVNALAIEAAKFILIHPAQFTLPIRKWQRNTVDFITALNRLDGVEVHPSGTTFFLLRLKKGTAAELKKYMLEEYNMLIRDASNFRGLDESYVRITTQRPAQNQLFIKALETFLEKYEGHHHHHH | not failed
10 | MGMVFGKIAVETPKYTVTKSGDGYEIREYPPAVAAEVTYDASEFKGDKDGGFQLLAKYIGVFGKPENEKPEKIAMTAPVITKEGEKIAMTAPVITKESEKIEMTSPVVTKEGGGEGRKKLVTMQFLLPSMYKKAEEAPRPTDERVVIKEEGGRKYGVIKFSGIASESVVSEKVKKLSSHLEKDGFKITGDFVLARYNPPWTLPPFRTNEVMIPVE | failed
11 | MEKENDENITKKLSLKKVLFNSLFVSLSILVLGFVINYKYAVGYIFILVIHELGHYIIAKFLKVSVAFGGFTPVGAYIIHENPKNCKENALIAMGGPLFGGLLGLIYYIVYYVTGNNTFLVLTFTSIILNLGNLIPVSPLDGGQIAEAISPTLCYIGFPVLIYLFILLNSLKSKILLLFIIVAGIYQTYYFTMKYKTDPYYKLDKPSKIKFIFIYSILVLSLTISAIYLYNSFDFKDIFHSIARFK | failed
12 | NSFDSSNYFYGGNNICIINTKWGKHSGIGGYAEIIDTLVGNFTNISSWAKIGIRDHIHTNFLICDFVYKDNDHIMPPGISSFEDYWVKIGNDVWVGTNVTILRGVEVGDGAVIAAGSVVTKSIPPYAIVGGNPAKFIKWRFPFEVREKLLEIKWWDWDDDLIKEKKDYLQNLVGFDMDKYKIEYRKRKED | failed
13 | MYYGFDIGGTKIALGVFDSTRRLQWEKRVPTPHTSYSAFLDAVCELVEEADQRFGVKGSVGIGIPGMPETEDGTLYAANVPAASGKPLRADLSARLDRDVRLDNDANCFALSEAWDDEFTQYPLVMGLILGTGVGGGLVLNGKPITGQSYITGEFGHMRLPVDALTLMGFDFPLRRCGCGQMGCIENYLSGRGFAWLYQHYYDQSLQAPEIIALWEQGDEQAHAHVERYLDLLAVCLGNILTIVDPDLLVIGGGLSNFTAITTQLAERLPRHLLPVARAPRIERARHGDAGGMRGAAFLHLTD | not failed
14 | MEQFLDNIKDLEVTTVVRAQEALDKKETATFFIGRKTCPYCRKFAGTLSGVVAETKAHIYFINSEEPSQLNDLQAFRSRYGIPTVPGFVHITDGQINVRCDSSMSAQEIKDFAGL | not failed
15 | MSLTGFWHDDFNNATPNDICVAIRSEAADAGIAQAIMQQLEEALKQLAQGSGSSQALTQVRRWDSACQKLPDANLALISVAGEYAAELANQALDRNLNVMMFSDNVTLEDEIQLKTRAREKGLLVMGPDCGTSMIAGTPLAFANVMPEGNIGVIGASGTGIQELCSQIALAGEGITHAIGLGGRDLSREVGGISALTALEMLSADEKSEVLAFVSKPPAEAVRLKIVNAMKATGKPTVALFLGYTPAVARDENVWFASSLDEAARLACLLSRVTARRNAIAPVSSGFICGLYTGGTLAAEAAGLLAGHLGVEADDTHQHGMMLDADSHQIIDLGDDFYTVGRPHPMIDPTLRNQLIADLGAKPQVRVLLLDVVIGFGATADPAASLVSAWQKACAARLDNQPLYAIATVTGTERDPQCRSQQIATLEDAGIAVVSSLPEATLLAAALIHPLSPAAQQHTPSLLENVAVINIGLRSFALELQSASKPVVHYQWSPVAGGNKKLARLLERLQGHPHHH | not failed
16 | SWNKKNEEKEDFGIIVILWKQVTVKEDGKVPLEPFLTAAKEVLRVVDAFGSGFRIVKNDIAGNIKKLYRANQTVHAETLQELIIAENSPDGLATVALLWLKRAFQFIASFLRRLVVTDKSLEQCVTEAYNCTLRPCHSAVIQKVFWGGVKLAPSRERFYRKLHPDLNIAKAKIEEFLIELHDPLCCIVQFFFQRELEDQCWGDEVYQRKDSSEWLKVSCEQDSV | not failed
17 | MAENAWVRVCALQELPELGARVLDVEGLPPIAIFRTASDQVFALRDRCPHKGGPLSQGIVAGETVTCPLHGWAIALQSGQACAPDVGCAPRYPVKVEAGAVWIVLQPVLQADAVAEPAALEHHHHHH | failed
18 | MLDISFGEFVLIGVVALVVLGPERLPTVARTVGALVARAQRFVANVKADMQQQANLQGLDSLRQDLQDAAHSFRGQLEAEVQQVRDAIDQNAADARALAEQAAEPFHEAERTIHGGLAPDAEAEAREAETHPAEPAPAAQADVPPRDENQLDLFDDLPPHRPPASQPSASQARE | failed
19 | TQEYLAPKTTVRVGLVQWQMRSYKTLDDLFEQVEFFVDAVSDYKSDFVLFPEYFNAPLMSKYNDKGESQAIRGLAQYTEEIRDRFINLAISYNINIITGSMPLIKEDGLLYNAGFLCRRDGTYEMYEKLHVTPDEIKSWGLSGGKQLKTFDTDCAKIGILICYDVEFPELSRLMADQGMQILFVPFLTDTQNAYSRVRVCAQARAIENECFVVIAGSVGNLPRVHNMDIQYAQSGVFTPCDFAFPTDGKRAEATPNTEMILVSDVDLDLLNELHTYGSVRNLKDRRNDVYEVRFKKP | failed
20 | MARLHPIYSGQSDRPAILFVHGLDGHWLETWRHDACSKDDCWPHWVGEETGCDIWSLEYDAALSGWLDQAMPLPDQGSQVMDLLASAPALKGKPLVFVTHSLGGILVKTALVYGAEEDRRFQHIVDHVLGVVFIATPHSGAQLATLARVIKYLLRINPPVGNLEHHDPHLRTLNRRYQTLVKERGIEGYVYAEKRGVKIGPRGFGGWLRRIEPTVMVVDPGSTDPSLPEIQPISLAEDHISICKPPDRQQQIHLSLCHVLKEKIIPLAGDRGMGTTGVGLKLLESGTAQENPAAHMPPGRLVGPDDNRLSPREGKVYGRKTQENDVLAFLKGSEPVKVVGGVAGVGKTEVCKAALKTWLHTSPRPVAYYVRVPDRARSADLVLQVGKAVGIENCESLAQLLGVIPVGLYYLDNLESVADDQEGRNALRDLAQKPGVRILASSRTRLDTIFGAPIEIKCLSAPDALALFRDLWPPTQTLPKDDELQAFVIGKLGGHALSLVLVARLGMCLSFDALRRRWDEEGAALACDGVEDDTRTSNLTFNLRLTAEVLAPTPGALSVWVLMALFEEGIPEAVLEEVERRGQWPTLARHRLAVHHLISKRGDRWFLPPPVARYARYAAVTEQDGFCWRKSRQPILDLFLVFAEKASSFDSSPETLKAKKWILEFFNTISIVIECELESNVQNKFWLNRMSYFLRDIYQQRIAVSPALLRKLADAGIQPANTLRSLGDLASRLGQVDKARSLYEKALGLSQQEQSGLGQANALKALGDLASRLGQVDKARSLYETALGLFQQEQHGLGQANTLHGLGDLASQLGQVDKARSLYEKALGLFQQEPNGLGQANTLKSLGALEYRLGQVDKARSLYEKAVDLYRIEQEPLGLAYSLTNLALCFEVLKNLSKRNQVLKAAFVASRDANNEIVQIYLKEAIPEMPGADVLYDSWLKGQSR | failed
21 | MTGRLVLAATPMGDVGDASPRLRTALGTADVVAAEDTRRTKALASALDVTITGKVVSFYDQVETARLPALVADVASGKTVLLVTDAGMPSVSDPGYRLVSACVAEDLAVTCLPG | failed
22 | MESAATAVVPPAAAATTATATDDNLQSSDSSSPADAVNRLIHAFSQRQQHLLDKTVPHVLYRWIACLCVVLIYIVRVYFVEGFYIITYAIGIYLLNLIIAFLSPQEDPEASLTSGGSLPTRRSDEYRPFVRRLPEFKFWLSIIRAFIIGFMMTFFEVFDVPVFWPILLFYWVMLFFLTMRKQIQHMIKYRYVPFSFGKKVCVSFSFLPSQN | failed
23 | LKYMYKIDDDKKYILYCPTWRGNQRKEVTQINLKDLLKYLPENYEIIVKLHPNESHLRTRYNQIDNRIHCYFNELVDIQELYILSECMITDYSSTIFDYIHLNKPVFILQEDEQQYKQSVGFYFDLFEVGDFLKASLNERMLAKQICSTDYINYSKVVHRLMKQDSSKSSEKLMAEILG | failed
